Data reported in the supplement of paper PMC12764529.
± gives the half width of the 95% confidence interval.

Assay: folding stability dG unfold from trypsin proteolysis; higher = more stable
Procedure, shortened: (§1)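 Unfolding free energy was derived, per protease or combined, against a sequence-predicted unfolded-state K50 and a shared folded-state K50, starting from K50 inferred by Bayesian fitting of sequencing counts. Digestion with trypsin and chymotrypsin was carried out on designed mini-proteins under 80 residues without cysteine in a PA-tagged cDNA display construct. Only designs with AlphaFold2 dimer inter-PAE above 15 were kept.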

Row | Sequence | folding stability dG unfold
1 | SAEELAEAEARRLGVDPAAVALEVTEEVDPLTGKPRKIVTVTIALPDRAYVITVDASDGTVLERRPLEAASA [r9_1219_JUSTAS] | 2.33 ± 0.051 kcal/mol
2 | SAGGANIHVRMENPGDGKPMSFMIPVKEVREAKQEGKDEIKIPFGGGPMKVEIEPLPDGWVHIRMRMPSAGG [r13_171_TrROS] | 0.417 ± 0.27 kcal/mol
3 | SAGGSDTVVLDFTVTVDGKPYTVRVTLTRNPPTGEITVPVEIESANPEDAVPAREVADALVERLLSSAGGSA [r2_259_TrMRF] | 1.21 ± 0.028 kcal/mol
4 | SPKGIYIFMIQVKWKNPNGNEWTFPIMVPMDEMPEEELRDFIREFFPGFDDVDIEPQVMRIPPSPEAREKSA [r9_841_TrROS] | 2.3 ± 0.16 kcal/mol
5 | SKIRIEVPGETIEITVPPGATVEFDEETGEITITLPDGSKRTIRLPPNAKIEVVDGEIRITIRLPPPPEPSA [r9_653_TrROS_Hall] | 3.15 ± 0.12 kcal/mol
6 | SMGMTPEEYILELVREALAADPDAAVTIDHDDIVRNTPNPISKEEIEKLAKEKTGVEDLTVTETPPDVPPSA [r9_738_JUSTAS] | 0.18 ± 0.023 kcal/mol
7 | SAGGSAGGSAGKKPPKVKVLELTFTLEDGYKVTVRLVENEDGELFLEIRIEPLPELPEEKSAGGSAGGSAGG [r11_998_TrROS_Hall] | 1.79 ± 0.16 kcal/mol
8 | SAGGSAGGSPVVVIEVPAEDLSPEDIKALLAAAPDENAVIVITNPDGEKRTLVFTPDGRIEPLSAGGSAGGS [r12_1054_TrROS_Hall] | 0.681 ± 0.024 kcal/mol
9 | SAGGSAGGSAGDPKKKPPKPILGFELAEFEITTEDGTKYKVKALIIYFPDTGTKVIFVLGSAGGSAGGSAGG [r11_1024_TrMRF] | 2.78 ± 0.13 kcal/mol
10 | SAGGSAGALLVRFNDPELVRELIEALPFDALVERDPDDPNVLLVTLFTDGPLEEAVRAVREALGLESAGGSA [r15_118_TrMRF] | 2.35 ± 0.039 kcal/mol
11 | SAGGSAGGSAGGSVWIRMPPSKIKDLLDKFGIEPIEIEKMPPGWVYIRITPDALKEAGVFSAGGSAGGSAGG [r7_587_TrROS] | 0.839 ± 0.14 kcal/mol
12 | SAGGSAGGSAGKPKKPKLVKVKITLPNGEKKEIITEDVEEVIKEINEEFGAIKIEVEEIKSAGGSAGGSAGG [r17_508_TrMRF] | 2.68 ± 0.12 kcal/mol
13 | DMEPEPFTIELPNVKIEVQVYRTPNKLSVNAPIEFPNGKNLTISFKYEPTPDGIKLEISIMIPKKAIEKLLS [r1_153_TrROS] | 2.33 ± 0.097 kcal/mol
14 | SAGGSMTAEELAEELAARHPDATVERSPSGVVTFRLPATGLTVTVSSGAGELRITVEDPTVPRRTLESAGGS [r16_478_JUSTAS] | 0.0944 ± 0.27 kcal/mol
15 | SAGGKIKIMDIEIERHGGYYKIEIWIQVDTPDDIEDLLKAGVPNVEVERRRNPNGRLYVQAEFYIPAGSAGG [r13_506_TrROS] | 1.74 ± 0.11 kcal/mol
16 | SAGGSAGGSAGSSILSVVEEDPETGLRVVLSPVSDVPVRIVTKRIPEKEEIKVLEVERLPSAGGSAGGSAGG [r11_1066_JUSTAS] | -0.603 ± 0.38 kcal/mol
17 | SAGSITLVFKTPEELEEALKKLAEELGLSEEEVEALKKELEEKFTITYDEETGYVTITLKPELSEEELKSAG [r5_717_TrROS_Hall] | 2 ± 0.13 kcal/mol
18 | SAGGSAGGSAGGPPLKVTEVETHKHPNGHRYVTMTLRPPNGGPVTIMFDPNNGKIQIMISAGGSAGGSAGGS [r10_1218_TrROS] | 2.19 ± 0.13 kcal/mol
19 | SAGGYVTSPMSPEIEAKAKEAGKTIDEAKELVIPVNDGGKFRTVKVTFYPETGTVAFYYEDTGEWSNLLSAG [r5_545_JUSTAS] | 0.499 ± 0.12 kcal/mol
20 | SAGMVIRDPGDGKYIYISPGSGEIEIFNDGKEKKIPFPPGEEMEIEIDPDDGTITITFPNNGRELEIPLSAG [r5_858_TrROS] | 0.598 ± 0.049 kcal/mol
21 | SAGGSAGGSDVTVTEYDVTLTVDVTFTAPDANGNPVTTTTPVTIPLKVTVFDFGTARLVVVEGSAGGSAGGS [r20_58_TrMRF] | 2.86 ± 0.087 kcal/mol

Row | Sequence | folding stability dG unfold
22 | SAGSATVTYDPDTNTVTVTLEGPDTTFTISFPNGEKLEVKATVKPLPDGSYKVLLEVYYPDGSKETFELSAG [r14_675_TrMRF] | 4.13 ± 0.2 kcal/mol
23 | SAGNVVETEEKPVESPLPRKATLTTLTSPTPGVTFRVFTSPENVTTVEVETDGRTETLEPAEAEALLASSAG [r5_157_JUSTAS] | -1.35 ± 0.58 kcal/mol
24 | SNKKWRTIELDFWFRTPEQAREWANNLARRLPPDNIDSISVEVEPFPVRKNGEPVGPVYRFKLTIMVRPESA [r9_605_TrROS] | 2.33 ± 0.062 kcal/mol
25 | SAGGSAGGKAEKITLEIPNTGKKVEIIKPENKAIITVYDKNGKPIKTIVVPPNFPGIEDAVKADSAGGSAGG [r6_424_TrMRF] | -0.267 ± 0.068 kcal/mol
26 | SAGGSAGGSAGGPFPFKIDSVEWETTDNKRYYEIKLEFPNGNPVTIHMPPNNPDDVKDAISAGGSAGGSAGG [r7_365_TrROS] | 0.232 ± 0.071 kcal/mol
27 | SAGGSAGGSAGIVIKAKSPDEAVEALKKLFEKTGKADINIKPVKVLPDGNVLVEAGIDNKSAGGSAGGSAGG [r17_430_TrMRF] | -0.403 ± 0.054 kcal/mol
28 | SMVYVFEVPEGDPEKAEELIRAKLEEEFGYKVESVATPGGGGARVVLVVDPVEDKAYAEVIPFAPDGSPASA [r9_173_TrMRF] | -0.529 ± 0.21 kcal/mol
29 | SAGGSAGGSAGGMLTIVEVLSKDPEKPVYTVKVKFPDGSEKTLEVPPELLSNPEKEIVLESAGGSAGGSAGG [r7_117_JUSTAS] | 1.23 ± 0.072 kcal/mol
30 | SAGAGKTPDGKEYIIPFTFKNENGETTPEEIEEKIKEFTAKHPEVKIKEIKAIKEGDSVKVLVVVEKPASAG [r5_688_TrMRF] | 2.61 ± 0.12 kcal/mol
31 | SAGGSAGGSKKKKIEIIIVMSKEEAEKIAEELKKKYNIKEIKIKVIPLKKNSPKVKELLKKLKSAGGSAGGS [r12_649_TrROS_Hall] | 1.03 ± 0.071 kcal/mol
32 | SAGGSSPPGVKVEVTVEVTYIPSKGGYKLTFYRPGGEKVDTKELEKDKLEEAKEELKAKGFDVVKIKKSAGG [r13_765_JUSTAS] | -0.402 ± 0.41 kcal/mol
33 | SAGGEVELKIKIEIRVELNEDGELKVEIKIEIELRPKPEPELTEEERLAEELRKKYPGLSKEELEALLSAGG [r13_136_TrROS_Hall] | 2.87 ± 0.32 kcal/mol
34 | SAGGSAGGSAGGSKDERTLTLRLRVTTPIYGTDADGNPLEPIEVTKEYELTVTVPADLLSAGGSAGGSAGGS [r4_425_TrMRF] | 1.18 ± 0.082 kcal/mol
35 | SKKIIIKITITDPKNKKKIKITEIIFDKKTKKIIIKIEVENVKNKEKLKSKEDVLEAIKKLLEKLGFKPISA [r9_258_TrROS_Hall] | 1.81 ± 0.23 kcal/mol
36 | SAGGKVYEFEIEVELLDPETGKPKKIKLKVPVFVDPKTGKVTKKVEAEPEPNVPKEEAEKIAKEIIEAESAG [r14_152_TrMRF] | -0.04 ± 0.38 kcal/mol
37 | SAVIPLEELARKVAEELGLEPVEVLEVIPEEGVVVMRFEGAVIVVKVDPETGEAEVEIVVFDPETGKPVSAG [r14_270_TrMRF] | 2.82 ± 0.11 kcal/mol
38 | SMTLTIDLDPSVPYLVRIHFVNEDGEPYEADALTTRTPDGTAFVDIALPDDSIPPGADIKILSVEVIPLDSA [r9_359_TrMRF] | 1.63 ± 0.019 kcal/mol
39 | SAGGKVKIIVFNKKTGEKIEIDLSKLKPGDIIKLPNGYYKIIDKKTKKIKVIKAKSIEELKKAIKKLSSAGG [r13_962_TrROS_Hall] | 2.07 ± 0.15 kcal/mol
40 | SAGGDKKWTAEFDVRKRDDTVEVTLTFTDPNGNETTETYTLTDDELAKLLAELPPEFKNVTRNEVLESAGGS [r16_298_JUSTAS] | 1.57 ± 0.043 kcal/mol
41 | SAGMTVEELKAQPKNATVTSVSRDPSTGLYTVTIERPDSNGKWVTHTLTLTGPEAVAAAVAAGLPSLAASAG [r5_905_JUSTAS] | 1.31 ± 0.026 kcal/mol
42 | SAGGSAGGMYTKTYNVPPDWKVTATATAPGGATVTDSSAPNGNFTLTFPASLADATTFTVTVTPSAGGSAGG [r6_237_JUSTAS] | -0.869 ± 0.47 kcal/mol

Assay: folding stability dG unfold from chymotrypsin proteolysis; higher = more stable
Procedure, shortened: as §1

Row | Sequence | folding stability dG unfold
43 | SAEELAEAEARRLGVDPAAVALEVTEEVDPLTGKPRKIVTVTIALPDRAYVITVDASDGTVLERRPLEAASA [r9_1219_JUSTAS] | 2.15 ± 0.034 kcal/mol
44 | SAGGANIHVRMENPGDGKPMSFMIPVKEVREAKQEGKDEIKIPFGGGPMKVEIEPLPDGWVHIRMRMPSAGG [r13_171_TrROS] | -0.0135 ± 0.4 kcal/mol
45 | SAGGSDTVVLDFTVTVDGKPYTVRVTLTRNPPTGEITVPVEIESANPEDAVPAREVADALVERLLSSAGGSA [r2_259_TrMRF] | 1.78 ± 0.075 kcal/mol
46 | SPKGIYIFMIQVKWKNPNGNEWTFPIMVPMDEMPEEELRDFIREFFPGFDDVDIEPQVMRIPPSPEAREKSA [r9_841_TrROS] | 2.75 ± 0.17 kcal/mol
47 | SKIRIEVPGETIEITVPPGATVEFDEETGEITITLPDGSKRTIRLPPNAKIEVVDGEIRITIRLPPPPEPSA [r9_653_TrROS_Hall] | 2.78 ± 0.2 kcal/mol
48 | SMGMTPEEYILELVREALAADPDAAVTIDHDDIVRNTPNPISKEEIEKLAKEKTGVEDLTVTETPPDVPPSA [r9_738_JUSTAS] | 0.252 ± 0.054 kcal/mol
49 | SAGGSAGGSAGKKPPKVKVLELTFTLEDGYKVTVRLVENEDGELFLEIRIEPLPELPEEKSAGGSAGGSAGG [r11_998_TrROS_Hall] | 3.36 ± 0.14 kcal/mol
50 | SAGGSAGGSPVVVIEVPAEDLSPEDIKALLAAAPDENAVIVITNPDGEKRTLVFTPDGRIEPLSAGGSAGGS [r12_1054_TrROS_Hall] | 0.451 ± 0.1 kcal/mol
51 | SAGGSAGGSAGDPKKKPPKPILGFELAEFEITTEDGTKYKVKALIIYFPDTGTKVIFVLGSAGGSAGGSAGG [r11_1024_TrMRF] | 4.73 ± 0.13 kcal/mol
52 | SAGGSAGALLVRFNDPELVRELIEALPFDALVERDPDDPNVLLVTLFTDGPLEEAVRAVREALGLESAGGSA [r15_118_TrMRF] | 3.25 ± 0.04 kcal/mol
53 | SAGGSAGGSAGGSVWIRMPPSKIKDLLDKFGIEPIEIEKMPPGWVYIRITPDALKEAGVFSAGGSAGGSAGG [r7_587_TrROS] | 0.887 ± 0.3 kcal/mol
54 | SAGGSAGGSAGKPKKPKLVKVKITLPNGEKKEIITEDVEEVIKEINEEFGAIKIEVEEIKSAGGSAGGSAGG [r17_508_TrMRF] | 2.8 ± 0.14 kcal/mol
55 | DMEPEPFTIELPNVKIEVQVYRTPNKLSVNAPIEFPNGKNLTISFKYEPTPDGIKLEISIMIPKKAIEKLLS [r1_153_TrROS] | 3.44 ± 0.1 kcal/mol
56 | SAGGSMTAEELAEELAARHPDATVERSPSGVVTFRLPATGLTVTVSSGAGELRITVEDPTVPRRTLESAGGS [r16_478_JUSTAS] | -0.527 ± 0.5 kcal/mol
57 | SAGGKIKIMDIEIERHGGYYKIEIWIQVDTPDDIEDLLKAGVPNVEVERRRNPNGRLYVQAEFYIPAGSAGG [r13_506_TrROS] | 3.49 ± 0.17 kcal/mol
58 | SAGGSAGGSAGSSILSVVEEDPETGLRVVLSPVSDVPVRIVTKRIPEKEEIKVLEVERLPSAGGSAGGSAGG [r11_1066_JUSTAS] | -0.758 ± 0.37 kcal/mol
59 | SAGSITLVFKTPEELEEALKKLAEELGLSEEEVEALKKELEEKFTITYDEETGYVTITLKPELSEEELKSAG [r5_717_TrROS_Hall] | 3.71 ± 0.15 kcal/mol
60 | SAGGSAGGSAGGPPLKVTEVETHKHPNGHRYVTMTLRPPNGGPVTIMFDPNNGKIQIMISAGGSAGGSAGGS [r10_1218_TrROS] | 3.35 ± 0.19 kcal/mol
61 | SAGGYVTSPMSPEIEAKAKEAGKTIDEAKELVIPVNDGGKFRTVKVTFYPETGTVAFYYEDTGEWSNLLSAG [r5_545_JUSTAS] | 1.05 ± 0.19 kcal/mol
62 | SAGMVIRDPGDGKYIYISPGSGEIEIFNDGKEKKIPFPPGEEMEIEIDPDDGTITITFPNNGRELEIPLSAG [r5_858_TrROS] | 0.846 ± 0.11 kcal/mol
63 | SAGGSAGGSDVTVTEYDVTLTVDVTFTAPDANGNPVTTTTPVTIPLKVTVFDFGTARLVVVEGSAGGSAGGS [r20_58_TrMRF] | 3.82 ± 0.048 kcal/mol
